Laboratory results published in PMC12436637.

Target: low-density lipoprotein receptor LRP1 on human iPSC-derived cortical excitatory neurons (human (endogenous in iPSC-derived neurons)) (UniProt Q07954)
Chain of UniProt Q07954 (Q07954 20-4544): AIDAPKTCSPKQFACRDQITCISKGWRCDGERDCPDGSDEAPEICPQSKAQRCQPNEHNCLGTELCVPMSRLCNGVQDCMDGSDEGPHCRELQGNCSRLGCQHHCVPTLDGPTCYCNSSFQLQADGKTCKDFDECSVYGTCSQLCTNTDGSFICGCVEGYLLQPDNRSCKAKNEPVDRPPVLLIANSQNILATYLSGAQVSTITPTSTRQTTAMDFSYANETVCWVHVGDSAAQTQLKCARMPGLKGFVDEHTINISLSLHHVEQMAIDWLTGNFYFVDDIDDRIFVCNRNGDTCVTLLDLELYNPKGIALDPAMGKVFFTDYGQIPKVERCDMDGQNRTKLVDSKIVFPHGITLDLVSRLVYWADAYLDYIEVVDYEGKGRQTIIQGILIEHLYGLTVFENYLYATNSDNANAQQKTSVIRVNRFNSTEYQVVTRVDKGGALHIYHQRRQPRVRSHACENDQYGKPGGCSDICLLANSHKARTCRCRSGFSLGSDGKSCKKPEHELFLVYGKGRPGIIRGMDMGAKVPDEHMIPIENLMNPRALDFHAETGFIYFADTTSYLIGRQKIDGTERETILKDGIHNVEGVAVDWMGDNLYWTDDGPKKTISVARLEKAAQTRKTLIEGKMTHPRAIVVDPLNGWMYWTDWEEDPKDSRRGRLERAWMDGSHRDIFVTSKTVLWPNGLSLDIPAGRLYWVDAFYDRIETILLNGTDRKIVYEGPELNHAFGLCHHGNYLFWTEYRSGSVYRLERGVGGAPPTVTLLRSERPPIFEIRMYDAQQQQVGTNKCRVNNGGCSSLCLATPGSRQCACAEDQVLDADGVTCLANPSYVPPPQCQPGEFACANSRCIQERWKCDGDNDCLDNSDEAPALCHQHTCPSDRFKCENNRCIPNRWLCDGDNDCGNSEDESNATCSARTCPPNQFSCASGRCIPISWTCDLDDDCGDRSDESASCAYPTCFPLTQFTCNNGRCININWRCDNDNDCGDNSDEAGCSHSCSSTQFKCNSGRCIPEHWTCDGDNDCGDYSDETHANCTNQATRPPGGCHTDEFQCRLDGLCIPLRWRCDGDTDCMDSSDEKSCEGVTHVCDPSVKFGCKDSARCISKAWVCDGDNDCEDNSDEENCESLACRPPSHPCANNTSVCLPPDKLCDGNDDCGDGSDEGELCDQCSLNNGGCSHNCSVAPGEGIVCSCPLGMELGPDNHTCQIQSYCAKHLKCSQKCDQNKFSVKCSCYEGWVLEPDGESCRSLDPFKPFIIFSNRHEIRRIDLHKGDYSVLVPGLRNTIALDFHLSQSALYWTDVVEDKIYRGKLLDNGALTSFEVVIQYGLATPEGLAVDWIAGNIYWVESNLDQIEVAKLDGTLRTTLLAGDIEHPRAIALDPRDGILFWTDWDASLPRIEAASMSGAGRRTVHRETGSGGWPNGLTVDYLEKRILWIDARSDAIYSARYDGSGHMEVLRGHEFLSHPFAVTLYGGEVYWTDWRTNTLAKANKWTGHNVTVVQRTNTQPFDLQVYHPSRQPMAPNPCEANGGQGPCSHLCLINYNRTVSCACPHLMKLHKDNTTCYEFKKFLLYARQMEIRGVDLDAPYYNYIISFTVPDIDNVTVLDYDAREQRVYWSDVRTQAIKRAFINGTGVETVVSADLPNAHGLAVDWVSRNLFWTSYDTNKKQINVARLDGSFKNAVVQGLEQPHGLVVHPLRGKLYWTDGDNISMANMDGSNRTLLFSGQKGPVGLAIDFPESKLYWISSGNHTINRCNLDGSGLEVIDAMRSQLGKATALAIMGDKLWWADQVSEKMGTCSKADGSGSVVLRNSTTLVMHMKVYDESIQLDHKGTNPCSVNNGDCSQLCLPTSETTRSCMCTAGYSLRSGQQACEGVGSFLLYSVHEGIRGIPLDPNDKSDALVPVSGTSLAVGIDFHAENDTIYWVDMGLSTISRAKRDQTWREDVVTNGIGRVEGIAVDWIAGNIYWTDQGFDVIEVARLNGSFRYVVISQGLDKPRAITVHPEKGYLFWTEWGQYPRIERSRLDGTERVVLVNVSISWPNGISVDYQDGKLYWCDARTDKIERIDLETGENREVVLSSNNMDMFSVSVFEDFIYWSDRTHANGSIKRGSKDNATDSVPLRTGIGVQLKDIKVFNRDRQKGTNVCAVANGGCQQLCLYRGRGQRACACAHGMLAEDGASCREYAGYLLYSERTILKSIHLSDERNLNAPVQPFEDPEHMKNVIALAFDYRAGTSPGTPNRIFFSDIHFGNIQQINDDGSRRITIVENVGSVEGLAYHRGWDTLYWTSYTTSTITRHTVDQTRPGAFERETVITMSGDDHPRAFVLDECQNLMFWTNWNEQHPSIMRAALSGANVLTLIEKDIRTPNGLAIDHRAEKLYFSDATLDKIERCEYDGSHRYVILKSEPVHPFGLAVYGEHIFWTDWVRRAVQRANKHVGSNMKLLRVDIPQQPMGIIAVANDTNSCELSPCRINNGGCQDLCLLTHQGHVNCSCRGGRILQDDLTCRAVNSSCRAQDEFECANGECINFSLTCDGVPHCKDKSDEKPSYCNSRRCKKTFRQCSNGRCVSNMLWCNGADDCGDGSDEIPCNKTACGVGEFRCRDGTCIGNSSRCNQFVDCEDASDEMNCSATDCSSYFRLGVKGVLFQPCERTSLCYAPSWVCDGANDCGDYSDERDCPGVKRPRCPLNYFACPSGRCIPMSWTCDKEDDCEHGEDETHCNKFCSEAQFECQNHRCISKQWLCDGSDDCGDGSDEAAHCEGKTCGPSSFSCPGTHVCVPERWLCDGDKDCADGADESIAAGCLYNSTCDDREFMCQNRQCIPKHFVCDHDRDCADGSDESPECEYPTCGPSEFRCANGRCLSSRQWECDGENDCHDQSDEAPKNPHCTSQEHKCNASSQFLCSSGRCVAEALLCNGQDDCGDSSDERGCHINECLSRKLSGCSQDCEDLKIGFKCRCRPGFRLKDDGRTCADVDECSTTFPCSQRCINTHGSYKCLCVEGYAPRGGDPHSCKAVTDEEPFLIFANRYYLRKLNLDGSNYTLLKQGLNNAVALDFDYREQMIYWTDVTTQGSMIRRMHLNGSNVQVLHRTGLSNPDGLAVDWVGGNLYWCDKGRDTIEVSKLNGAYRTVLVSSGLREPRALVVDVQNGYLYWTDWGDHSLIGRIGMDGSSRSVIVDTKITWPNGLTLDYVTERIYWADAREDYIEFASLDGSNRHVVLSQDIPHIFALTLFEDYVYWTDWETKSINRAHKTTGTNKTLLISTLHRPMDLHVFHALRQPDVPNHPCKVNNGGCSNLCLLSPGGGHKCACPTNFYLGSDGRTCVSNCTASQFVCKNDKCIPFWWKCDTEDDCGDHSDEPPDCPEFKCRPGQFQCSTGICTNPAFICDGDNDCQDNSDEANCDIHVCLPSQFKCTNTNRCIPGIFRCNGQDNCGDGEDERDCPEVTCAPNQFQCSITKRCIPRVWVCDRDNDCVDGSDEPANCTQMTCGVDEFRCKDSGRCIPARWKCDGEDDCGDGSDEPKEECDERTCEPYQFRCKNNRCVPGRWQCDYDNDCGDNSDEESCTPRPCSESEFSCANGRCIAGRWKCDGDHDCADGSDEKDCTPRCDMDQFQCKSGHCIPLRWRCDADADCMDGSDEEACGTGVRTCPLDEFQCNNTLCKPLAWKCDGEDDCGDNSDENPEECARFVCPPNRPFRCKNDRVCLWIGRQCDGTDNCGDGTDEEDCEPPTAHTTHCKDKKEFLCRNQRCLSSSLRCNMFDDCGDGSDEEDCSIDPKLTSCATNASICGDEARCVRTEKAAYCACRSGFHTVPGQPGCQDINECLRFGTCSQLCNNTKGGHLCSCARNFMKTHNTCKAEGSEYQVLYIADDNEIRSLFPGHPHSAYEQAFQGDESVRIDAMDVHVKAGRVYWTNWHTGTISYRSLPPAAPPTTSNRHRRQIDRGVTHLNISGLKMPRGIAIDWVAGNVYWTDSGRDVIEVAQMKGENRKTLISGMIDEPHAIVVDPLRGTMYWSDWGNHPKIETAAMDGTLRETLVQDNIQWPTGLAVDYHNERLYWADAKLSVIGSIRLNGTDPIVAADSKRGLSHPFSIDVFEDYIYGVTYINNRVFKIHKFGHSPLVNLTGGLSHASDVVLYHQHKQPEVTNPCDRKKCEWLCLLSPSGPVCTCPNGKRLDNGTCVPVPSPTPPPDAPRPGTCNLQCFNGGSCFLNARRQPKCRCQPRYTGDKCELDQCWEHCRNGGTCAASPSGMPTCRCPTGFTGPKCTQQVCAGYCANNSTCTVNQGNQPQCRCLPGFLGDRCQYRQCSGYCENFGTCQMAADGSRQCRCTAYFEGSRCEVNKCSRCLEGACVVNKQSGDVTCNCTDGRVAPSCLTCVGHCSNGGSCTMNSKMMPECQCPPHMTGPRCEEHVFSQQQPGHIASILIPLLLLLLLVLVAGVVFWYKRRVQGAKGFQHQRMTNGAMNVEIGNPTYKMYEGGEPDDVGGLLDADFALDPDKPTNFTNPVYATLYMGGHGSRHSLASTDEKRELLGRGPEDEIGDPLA

- decrease in neuronal uptake of monomeric tau-pHrodo (tau-positive objects, live imaging over 4 h) with 100 nM soluble recombinant LRP1 domain IV (Human LRP1 Cluster IV Fc Chimera, R&D Systems) added: 68%
- neuronal uptake of monomeric tau-pHrodo (tau-positive objects, live imaging over 4 h) with 10 nM RAP chaperone (Human LRPAP Protein, R&D Systems) added to block LDL receptors: 63%
Substance: monomeric tau P301S (tau P301S_FLAG×3_10×his-tag), pHrodo-labelled (natural protein)
